From patent publication US6107104A, “Modulators of anchoring protein function” (ICOS Corporation, priority 1996, dated 2000) come the findings set out here.

The experiment has as its system PKC. The experiment in a line: PKC activity assay with EGF receptor peptide substrate. The class given is biochemical. The procedure:
In order to asses the ability of these peptides to modulate PKC activity, the following assay was performed in the presence and absence of AKAP 79 peptide fragments. PKC [50 nM dissolved in 50 mM tris-HCl (pH 7.4), 5 mM MgCl2 1.2 mM CaCl2, 1 mM DTT, 1 mM EGTA and 100 μg/ml PS] was incubated with EGF receptor peptide substrate (5 μM) at 30° C. for five minutes. Phosphorylation reaction was initiated by addition of 100 μM ^32 P-ATP (500 cpm/pmol) and the reaction allowed to proceed for ten minutes at 30° C. Aliquots of reaction mixture were removed and spotted into P81 filter paper and the reaction terminated by washing the filter paper with excess 75 mM phosphoric acid (three washes for three minutes each). After a final wash in ethanol, the p81 filters were dried and radioactivity was measured by liquid scintillation counting.

The IC50 is the concentration needed to halve the response being measured.

B1: recombinant fragment to the first 75 amino acids of AKAP 79: recombinant fragment of AKAP 79, amino acids 1-75 (protein, UniProt P24588 1-75, looked up, fragment)
chain: METTISEIHVENKDEKRSAEGSPGAERQKEKASMLCFKRRKKAAKALKPKAGSEAADVARKCPQEAGASDQPEPT
Take B1: under “CaM 15 μM, excess Ca2+”, the “effect of incubation with CaM on inhibition of PKC” value is on record as “prevented inhibition”. Also, the concentration for half-maximal inhibition (IC50) (read-out: IC50 of inhibition of PKC activity) was 25 ± 5 nM.
